Source: US20010018195

Key:
[1] = molecular target: GST-XIAP fusion protein, P98170
Chain of GST-XIAP fusion protein, P98170 (P98170 whole entry, the tested form may be a part): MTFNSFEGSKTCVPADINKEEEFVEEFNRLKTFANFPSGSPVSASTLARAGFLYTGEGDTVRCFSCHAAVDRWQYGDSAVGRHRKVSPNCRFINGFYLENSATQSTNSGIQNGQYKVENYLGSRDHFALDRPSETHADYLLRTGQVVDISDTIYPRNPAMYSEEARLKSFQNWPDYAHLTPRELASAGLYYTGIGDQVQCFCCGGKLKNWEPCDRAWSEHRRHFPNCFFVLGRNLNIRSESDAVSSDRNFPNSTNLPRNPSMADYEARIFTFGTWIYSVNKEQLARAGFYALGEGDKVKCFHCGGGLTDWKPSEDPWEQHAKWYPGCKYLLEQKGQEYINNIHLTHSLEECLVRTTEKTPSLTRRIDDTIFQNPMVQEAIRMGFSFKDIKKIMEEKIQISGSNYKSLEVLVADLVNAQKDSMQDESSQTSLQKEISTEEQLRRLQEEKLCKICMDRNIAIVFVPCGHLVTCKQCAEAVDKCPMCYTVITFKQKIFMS

Chain of GST-c-IAP-2, Q13489 (Q13489 whole entry): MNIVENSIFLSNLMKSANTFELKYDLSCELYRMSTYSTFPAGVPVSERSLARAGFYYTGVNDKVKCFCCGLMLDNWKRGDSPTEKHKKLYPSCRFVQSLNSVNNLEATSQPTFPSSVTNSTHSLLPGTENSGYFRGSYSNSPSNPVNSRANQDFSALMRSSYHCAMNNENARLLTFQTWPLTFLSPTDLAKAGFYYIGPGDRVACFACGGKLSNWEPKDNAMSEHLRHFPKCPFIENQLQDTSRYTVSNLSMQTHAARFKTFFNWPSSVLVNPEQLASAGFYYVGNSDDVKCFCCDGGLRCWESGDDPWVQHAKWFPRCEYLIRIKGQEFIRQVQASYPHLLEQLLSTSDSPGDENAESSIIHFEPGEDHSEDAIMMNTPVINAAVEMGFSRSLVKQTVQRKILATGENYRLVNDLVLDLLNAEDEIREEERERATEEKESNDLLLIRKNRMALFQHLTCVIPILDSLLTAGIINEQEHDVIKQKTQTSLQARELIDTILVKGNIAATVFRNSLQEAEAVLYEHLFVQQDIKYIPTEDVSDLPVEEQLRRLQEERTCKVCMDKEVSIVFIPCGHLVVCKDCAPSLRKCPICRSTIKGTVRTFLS
Chain of GST-c-IAP-1, Q13490 (Q13490 whole entry): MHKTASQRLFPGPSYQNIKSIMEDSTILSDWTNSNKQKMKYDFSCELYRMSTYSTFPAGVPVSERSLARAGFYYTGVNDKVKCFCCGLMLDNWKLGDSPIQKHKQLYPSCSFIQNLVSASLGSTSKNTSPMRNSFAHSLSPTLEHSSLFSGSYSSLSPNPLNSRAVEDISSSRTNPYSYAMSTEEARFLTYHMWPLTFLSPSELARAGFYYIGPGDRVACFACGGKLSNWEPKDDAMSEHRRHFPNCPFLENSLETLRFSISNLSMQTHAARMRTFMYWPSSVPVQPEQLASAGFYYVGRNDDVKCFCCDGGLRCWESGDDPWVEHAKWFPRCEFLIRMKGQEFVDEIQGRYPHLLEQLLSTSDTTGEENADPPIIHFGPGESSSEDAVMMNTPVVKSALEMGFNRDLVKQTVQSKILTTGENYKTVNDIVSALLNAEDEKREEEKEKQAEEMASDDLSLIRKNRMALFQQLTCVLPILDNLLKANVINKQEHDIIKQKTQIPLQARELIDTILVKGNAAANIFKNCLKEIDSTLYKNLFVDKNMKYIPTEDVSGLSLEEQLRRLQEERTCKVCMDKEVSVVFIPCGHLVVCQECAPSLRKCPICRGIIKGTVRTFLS

B1: purified recombinant active caspase-9 (His6-tagged) (protein)
chain: MDEADRRLLRRCRLRLVEELQVDQLWDALLSRELFRPHMIEDIQRAGSGSRRDQARQLIIDLETRGSQALPLFISCLEDTGQDMLASFLRTNRQAAKLSKPTLENLTPVVLRPEIRKPEVLRPETPRPVDIGSGGFGDVGALESLRGNADLAYILSMEPCGHCLIINNVNFCRESGLRTRTGSNIDCEKLRRRFSSLHFMVEVKGDLTAKKMVLALLELAQQDHGALDCCVVVILSHGCQASHLQFPGAVYGTDGCPVSVEKIVNIFNGTSCPSLGGKPKLFFIQACGGEQKDHGFEVASTSPEDESPGSNPEPDATPFQEGLRTFDQLDAISSLPTPSDIFVSYSTFPGFVSWRDPKSGSWYVETLDDIFEQWAHSEDLQSLLLRVANAVSVKGIYKQMPGCFNFLRKKLFFKTS
With B1 the “coupled reaction: pro-caspase-3 activation by caspase-9, Ac-DEVD-AFC hydrolysis” value (shortened to “coupled reaction”) (GST-c-IAP-1, Q13490) was “XIAP, c-IAP-1 and c-IAP-2 each efficiently inhibited pro-caspase-3 activation and cleavage of the tetrapeptide substrate”, the “cleavage of purified pro-caspase-3 by active caspase-9 (immunoblot)” value [1] was “Addition of an equimolar concentration of XIAP relative to caspase-9 strongly inhibited cleavage of pro-caspase-3” and the “coupled reaction” value [1] was “XIAP, c-IAP-1 and c-IAP-2 each efficiently inhibited pro-caspase-3 activation and cleavage of the tetrapeptide substrate”. For the same protein, the “coupled reaction” value (GST-c-IAP-2, Q13489) was “XIAP, c-IAP-1 and c-IAP-2 each efficiently inhibited pro-caspase-3 activation and cleavage of the tetrapeptide substrate”.

B2: purified recombinant active caspase-8 (catalytic subunit, Ser 217 to the C-terminus, His6-tagged) (protein)
chain: SESQTLDKVYQMKSKPRGYCLIINNHNFAKAREKVPKLHSIRDRNGTHLDAGALTTTFEELHFEIKPHDDCTVEQIYEILKIYQLMDHSNMDCFICCILSHGDKGIIYGTDGQEAPIYELTSQFTGLKCPSLAGKPKVFFIQACQGDNYQKGIPVETDSEEQPYLEMDLSSPQTRYIPDEADFLLGMATVNNCVSYRNPAEGTWYIQSLCQSLRERCPRGDDILTILTEVNYEVSNKDDKKNMGKQMPQPTFTLRKKLVFPSD
With B2 the “average ratio velocities (vi/vo) of DEVD-AFC hydrolysis” value [1] was “ratios of about 1.0” and the “substrate cleavage by purified caspase” value [1] was “did not interfere with substrate cleavage by caspase-1, caspase-6 or caspase-8, even when added at a 50-fold molar excess”.

B3: purified recombinant caspase-1 (protein)
chain: NPAMPTSSGSEGNVKLCSLEEAQRIWKQKSAEIYPIMDKSSRTRLALIICNEEFDSIPRRTGAEVDITGMTMLLQNLGYSVDVKKNLTASDMTTELEAFAHRPEHKTSDSTFLVFMSHGIREGICGKKHSEQVPDILQLNAIFNMLNTKNCPSLKDKPKVIIIQACRGDSPGVVWFKDSVGVSGNLSLPTTEEFEDDAIKKAHIEKDFIAFCSSTPDNVSWRHPTMGSVFIGRLIEHMQEYACSCDVEEIFRKVRFSFEQPDGRAQMPTTERVTLTRCFYLFPGH
B3 was tested, and the “substrate cleavage by purified caspase” value [1] was “did not interfere with substrate cleavage by caspase-1, caspase-6 or caspase-8, even when added at a 50-fold molar excess”.

B4: purified recombinant caspase-6 (His6-tagged) (protein)
chain 1: AFYKREMFDPAEKYKMDHRRRGIALIFNHERFFWHLTLPERRGTCADRDNLTRRFSDLGFEVKCFNDLKAEELLLKIHEVSTVSHADADCFVCVFLSHGEGNHIYAYDAKIEIQTLTGLFKGDKCHSLVGKPKIFIIQACRGNQHDVPVIPLDVVD
chain 2: AASVYTLPAGADFLMCYSVAEGYYSHRETVNGSWYIQDLCEMLGKYGSSLEFTELLTLVNRKVSQRRVDFCKDPSAIGKKQVPCFASMLTKKLHFFPKSN
For B4, the “average ratio velocities (vi/vo) of DEVD-AFC hydrolysis” value [1] was “ratios of about 1.0” and the “substrate cleavage by purified caspase” value [1] was “did not interfere with substrate cleavage by caspase-1, caspase-6 or caspase-8, even when added at a 50-fold molar excess”.
